# B1: Beta-adrenergic receptor kinase 1 (Bos taurus (Bovine)), P21146 (parent)
# chain: MADLEAVLADVSYLMAMEKSKATPAARASKKILLPEPSIRSVMQKYLEDRGEVTFEKIFSQKLGYLLFRDFCLKHLEEAKPLVEFYEEIKKYEKLETEEERLVCSREIFDTYIMKELLACSHPFSKSAIEHVQGHLVKKQVPPDLFQPYIEEICQNLRGDVFQKFIESDKFTRFCQWKNVELNIHLTMNDFSVHRIIGRGGFGEVYGCRKADTGKMYAMKCLDKKRIKMKQGETLALNERIMLSLVSTGDCPFIVCMSYAFHTPDKLSFILDLMNGGDLHYHLSQHGVFSEADMRFYAAEIILGLEHMHNRFVVYRDLKPANILLDEHGHVRISDLGLACDFSKKKPHASVGTHGYMAPEVLQKGVAYDSSADWFSLGCMLFKLLRGHSPFRQHKTKDKHEIDRMTLTMAVELPDSFSPELRSLLEGLLQRDVNRRLGCLGRGAQEVKESPFFRSLDWQMVFLQKYPPPLIPPRGEVNAADAFDIGSFDEEDTKGIKLLDSDQELYRNFPLTISERWQQEVAETVFDTINAETDRLEARKKTKNKQLGHEEDYALGKDCIMHGYMSKMGNPFLTQWQRRYFYLFPNRLEWRGEGEAPQSLLTMEEIQSVEETQIKERKCLLLKIRGGKQFVLQCDSDPELVQWKKELRDAYREAQQLVQRVPKMKNKPRSPVVELSKVPLIQRGSANGL
# B2: Beta-adrenergic receptor kinase 1 (Bos taurus (Bovine)), P21146 (parent)
# chain: B1 chain
# partner: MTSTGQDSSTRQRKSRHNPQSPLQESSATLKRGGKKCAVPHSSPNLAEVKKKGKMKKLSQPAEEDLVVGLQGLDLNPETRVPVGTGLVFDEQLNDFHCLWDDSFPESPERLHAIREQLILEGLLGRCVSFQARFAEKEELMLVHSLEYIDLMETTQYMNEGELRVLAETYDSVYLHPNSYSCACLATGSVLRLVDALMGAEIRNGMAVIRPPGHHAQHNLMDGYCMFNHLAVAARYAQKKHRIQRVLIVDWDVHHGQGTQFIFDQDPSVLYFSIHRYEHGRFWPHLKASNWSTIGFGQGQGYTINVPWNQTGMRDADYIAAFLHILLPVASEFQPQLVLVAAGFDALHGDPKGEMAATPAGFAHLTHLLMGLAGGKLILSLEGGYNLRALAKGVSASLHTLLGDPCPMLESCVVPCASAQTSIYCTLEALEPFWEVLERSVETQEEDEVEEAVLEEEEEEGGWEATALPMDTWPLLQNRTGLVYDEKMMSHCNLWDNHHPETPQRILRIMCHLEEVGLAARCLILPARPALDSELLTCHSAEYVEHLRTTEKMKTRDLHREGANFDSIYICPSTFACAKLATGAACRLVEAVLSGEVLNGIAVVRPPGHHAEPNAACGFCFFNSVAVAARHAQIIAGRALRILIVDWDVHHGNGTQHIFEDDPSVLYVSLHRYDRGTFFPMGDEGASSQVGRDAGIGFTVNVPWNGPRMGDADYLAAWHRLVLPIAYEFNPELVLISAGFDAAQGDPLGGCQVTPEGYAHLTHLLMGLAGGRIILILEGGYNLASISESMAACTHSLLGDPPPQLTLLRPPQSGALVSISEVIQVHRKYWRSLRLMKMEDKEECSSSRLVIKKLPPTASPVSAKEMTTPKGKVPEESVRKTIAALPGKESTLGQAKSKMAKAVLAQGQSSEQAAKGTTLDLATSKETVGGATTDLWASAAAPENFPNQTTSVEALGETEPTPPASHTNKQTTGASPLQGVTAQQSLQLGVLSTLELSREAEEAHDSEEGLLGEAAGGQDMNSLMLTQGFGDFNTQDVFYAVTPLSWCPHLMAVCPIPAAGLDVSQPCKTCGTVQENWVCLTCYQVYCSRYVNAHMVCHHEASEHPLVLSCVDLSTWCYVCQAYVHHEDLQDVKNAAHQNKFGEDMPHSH
# Variants of: B1
# Details: with hdac6_human HDAC6, Q9UBN7
# hdac6_human HDAC6, Q9UBN7, sequence (Q9UBN7 whole entry): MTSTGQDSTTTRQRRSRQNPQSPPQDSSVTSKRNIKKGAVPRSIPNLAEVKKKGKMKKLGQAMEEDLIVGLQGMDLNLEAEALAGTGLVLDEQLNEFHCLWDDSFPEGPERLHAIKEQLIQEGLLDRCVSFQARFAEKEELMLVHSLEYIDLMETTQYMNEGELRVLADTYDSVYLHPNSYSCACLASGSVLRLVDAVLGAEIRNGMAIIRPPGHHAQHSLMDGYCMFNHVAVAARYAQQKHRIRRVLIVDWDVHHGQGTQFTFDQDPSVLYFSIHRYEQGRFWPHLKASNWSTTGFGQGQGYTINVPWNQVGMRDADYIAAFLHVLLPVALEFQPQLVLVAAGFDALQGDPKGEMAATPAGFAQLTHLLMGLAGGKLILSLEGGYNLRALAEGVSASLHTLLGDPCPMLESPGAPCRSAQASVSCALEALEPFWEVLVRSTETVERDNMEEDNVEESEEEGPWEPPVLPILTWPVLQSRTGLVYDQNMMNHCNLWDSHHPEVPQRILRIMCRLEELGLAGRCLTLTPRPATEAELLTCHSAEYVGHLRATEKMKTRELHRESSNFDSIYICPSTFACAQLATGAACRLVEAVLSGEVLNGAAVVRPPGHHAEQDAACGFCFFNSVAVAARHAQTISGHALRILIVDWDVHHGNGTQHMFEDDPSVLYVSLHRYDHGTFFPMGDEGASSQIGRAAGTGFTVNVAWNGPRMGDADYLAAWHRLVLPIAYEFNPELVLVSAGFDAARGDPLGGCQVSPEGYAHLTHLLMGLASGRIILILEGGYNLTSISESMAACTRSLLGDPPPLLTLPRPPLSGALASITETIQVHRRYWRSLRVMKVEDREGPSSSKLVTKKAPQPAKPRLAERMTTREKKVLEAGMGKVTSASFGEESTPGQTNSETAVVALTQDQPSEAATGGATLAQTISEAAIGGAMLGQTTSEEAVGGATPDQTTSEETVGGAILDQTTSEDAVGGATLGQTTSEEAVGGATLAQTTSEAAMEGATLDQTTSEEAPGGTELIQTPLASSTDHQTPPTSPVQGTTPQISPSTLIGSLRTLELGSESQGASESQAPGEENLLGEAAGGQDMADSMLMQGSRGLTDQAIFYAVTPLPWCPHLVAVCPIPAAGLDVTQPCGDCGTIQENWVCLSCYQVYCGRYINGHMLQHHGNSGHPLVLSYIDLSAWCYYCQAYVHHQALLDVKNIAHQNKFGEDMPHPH
row,Variant,effect of a mutation on the interaction
1,S670A,decreasing interaction

# Variants of: B1
# Details: with hdac6_human HDAC6, Q9UBN7
# Remark: another data set of the same source
row,Variant,effect of a mutation on the interaction
1,K220R,disrupting interaction

# Variants of: B2
# Details: with hdac6_mouse Hdac6, Q9Z2V5
row,Variant,effect of a mutation on the interaction
1,K220R,increasing interaction

# — IntAct's records for PubMed 22193721
